± gives the uncertainty stated by the source.
Assay: protein stability index of a GFP-peptide fusion (yeast GPS) (PSI 1-4); higher = more stable; sorted into four equal gates, so the index is relative within each strain
In short: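 Sequencing reads from sorted gates were used to score each peptide. The library consisted of tiled 17-residue yeast protein peptides fused downstream of GFP on a Cherry-expressing plasmid, pooled and carried in yeast. Mid-log cultures in leucine-free medium were split into four equal gates by GFP/Cherry ratio, and each gate's plasmids were PCR-amplified and Illumina-sequenced. The protein stability index adds up, over all gates, the read frequency multiplied by the gate number.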

| Sequence | protein stability index (doa10∆) | protein stability index (pdr5∆) | protein stability index (san1∆) | protein stability index (ubr1∆) |
| --- | --- | --- | --- | --- |
| SEPLTLKVLSEHLDCMN [PCI8] | 1.91 ± 0.064 | 2.29 ± 0.065 | 2.73 ± 0.055 | 1.93 ± 0.058 |
| IPLNRLSLDSDVKFPSN [SMC3] | 1.69 ± 0.059 | 1.92 ± 0.064 | 2.05 ± 0.11 | 1.99 ± 0.054 |
| ASILLALTQMDQDKVNF [RPB3] | 3.18 ± 0.11 | 3.28 ± 0.094 | 3.24 ± 0.073 | 2.93 ± 0.056 |
| ELIQKYLGDGPRLCRQI [RPT2] | – | – | 2.76 ± 0.2 | – |
| EKPLILADYIVEVLLVN [NUT1] | 1.91 ± 0.047 | 1.49 ± 0.039 | 1.65 ± 0.17 | 1.32 ± 0.039 |
| TQMDGFDQSTNVKVIMA [RPT3] | 2.28 ± 0.062 | 2.35 ± 0.06 | 1.54 ± 0.077 | 2.31 ± 0.061 |
| MAKDIEISASESKFILE [RRP45] | 3.17 ± 0.092 | 3.06 ± 0.14 | 2.99 ± 0.064 | 3.02 ± 0.093 |
| EQKLQTVLETLLSDVNQ [SMC3] | – | – | – | 1.22 ± 0.13 |
| QFTGFLLHEMTQTYMQM [GRR1] | 1.92 ± 0.054 | 2.08 ± 0.036 | 2.2 ± 0.051 | 1.9 ± 0.041 |
| LSFSWAILLIINLTQTY [NUT1] | 1.5 ± 0.088 | 1.96 ± 0.069 | 2.24 ± 0.097 | 2.06 ± 0.041 |
| KKSKRLDKVGKKKGGKK [LRP1] | 3.16 ± 0.15 | 2.43 ± 0.27 | 2.99 ± 0.12 | 3.24 ± 0.21 |
| PVRTIVPISTSQTNNSF [SIR4] | 2.04 ± 0.04 | 2.2 ± 0.047 | 2.22 ± 0.052 | 2.28 ± 0.034 |
| TTPEINNFIVERVQSDE [SRP68] | 3.18 ± 0.15 | 3.38 ± 0.14 | 3.37 ± 0.097 | 2.88 ± 0.13 |
| YQMQSNYESVFTYNKFL [YIL149C/MLP2] | 1.29 ± 0.043 | 1.23 ± 0.028 | 1.55 ± 0.14 | 1.5 ± 0.048 |
| FERPAVKEEKEDMETQA [RPC53] | 2.87 ± 0.24 | 2.71 ± 0.23 | 3.2 ± 0.084 | 3.46 ± 0.16 |
| LKSAIRDEIAKNTELSY [RPN12] | 1.41 ± 0.058 | 2.16 ± 0.1 | 1.51 ± 0.097 | 2.46 ± 0.056 |
| RENMICKIDFQKNFMDQ [RRI2] | 2.9 ± 0.13 | 2.96 ± 0.11 | 3.19 ± 0.067 | 3.24 ± 0.081 |
| ELALLNHWRQNKGRAVY [BRR2] | 1.21 ± 0.21 | 1.21 ± 0.13 | 1.21 ± 0.29 | 1.1 ± 0.083 |
| PHSLATKTTGKCGSVTV [RPS2] | 1.2 ± 0.12 | 1.27 ± 0.1 | – | – |
| ENVGTRLLPINVNKKAL [MED11] | 2.87 ± 0.18 | 2.65 ± 0.13 | 2.89 ± 0.094 | 2.98 ± 0.22 |
| WVKKFKWAGIKTRKFVF [CYT1] | 1.14 ± 0.12 | 1.51 ± 0.1 | – | 1.27 ± 0.074 |
| TASSEASAGSKEGASTN [YMR153W/NUP53] | 3.09 ± 0.2 | 3.23 ± 0.14 | 3.32 ± 0.16 | 3.39 ± 0.12 |
| EGLDLLKLCVQELEKRM [PRE1] | 2.04 ± 0.095 | 2.32 ± 0.076 | 2.19 ± 0.16 | 2.06 ± 0.059 |
| PEGLLKSLWDYVKKNTE [TAF14] | 3.01 ± 0.17 | 2.12 ± 0.076 | – | 3.13 ± 0.094 |
| VLIKMVKMLRDNPGYKA [SIR3] | 3.34 ± 0.077 | 3.47 ± 0.068 | 3.47 ± 0.039 | 3.33 ± 0.036 |
| HSNRCIVFSKKEPFPHS [CSN12] | 2.49 ± 0.043 | 2.85 ± 0.047 | 2.8 ± 0.058 | 2.69 ± 0.037 |
| YKKPTGGIVTVRSEMGE [FAS1] | 2.66 ± 0.13 | 1.69 ± 0.069 | 1.32 ± 0.18 | 1.39 ± 0.082 |

| Sequence | protein stability index (doa10∆) | protein stability index (pdr5∆) | protein stability index (san1∆) | protein stability index (ubr1∆) |
| --- | --- | --- | --- | --- |
| YDLLISTLTTISGNPPL [SRB5] | 2.43 ± 0.052 | 2.3 ± 0.045 | 1.77 ± 0.07 | 2.46 ± 0.04 |
| AQLTLKRCKHFELGGEK [RPL42A] | 1.93 ± 0.12 | 2.46 ± 0.11 | 2.89 ± 0.069 | 2.56 ± 0.076 |
| YKGMASNDERIVKRLYE [BRR2] | 3.33 ± 0.085 | 3.47 ± 0.083 | 3.31 ± 0.052 | 3.51 ± 0.047 |
| FVCLSCSHIFTSDQKNK [RPB9] | 2.43 ± 0.082 | 2.28 ± 0.093 | 2.04 ± 0.11 | 2.55 ± 0.066 |
| PSAVAGFINQKNLKPQE [YIL149C/MLP2] | 3.16 ± 0.099 | 3.1 ± 0.084 | 2.98 ± 0.05 | 3.02 ± 0.042 |
| GRTGNGNMGITTEMLDK [MED6] | 3.23 ± 0.069 | 3.23 ± 0.062 | 3.28 ± 0.047 | 3.27 ± 0.04 |
| NQSTIYEDEELSRAEYD [LIN1] | 3.12 ± 0.086 | 3.2 ± 0.087 | 3.15 ± 0.058 | 3.27 ± 0.058 |
| AETLAEELINAAKGSST [RPS5] | 2.15 ± 0.083 | 2.51 ± 0.095 | 2.32 ± 0.1 | 2.09 ± 0.088 |
| TNQLVLLQKMLNLLNYQ [YML103C/NUP188] | 1.99 ± 0.04 | 1.43 ± 0.03 | 1.29 ± 0.056 | 1.43 ± 0.031 |
| LDISVFLLEKAGERKIP [TAF14] | 2.26 ± 0.078 | 2.43 ± 0.072 | 2.44 ± 0.063 | 2.16 ± 0.061 |
| LEASYSKSYTPRKLVLS [SMC4] | 2.31 ± 0.043 | 2.52 ± 0.059 | 2.11 ± 0.088 | 2.22 ± 0.05 |
| APLKHGVGILYKGMASN [BRR2] | 1.93 ± 0.078 | 1.68 ± 0.076 | 1.38 ± 0.13 | 1.3 ± 0.11 |
| RLLPNGSNKAQISIIDI [YML031W/NDC1] | 2.91 ± 0.076 | 3.11 ± 0.067 | 2.6 ± 0.048 | 2.92 ± 0.035 |
| EIELKKLPKVYKRSIVR [SWI1] | 2.11 ± 0.069 | 1.86 ± 0.071 | 2.68 ± 0.099 | 2.91 ± 0.074 |
| YIKSMDLISKKTKTSLL [RPR2] | 2.96 ± 0.081 | 2.66 ± 0.079 | 2.78 ± 0.075 | 2.79 ± 0.051 |
| HIQGFPTLGERLDNLQD [DSN1] | 3.34 ± 0.11 | 3.39 ± 0.11 | 3.16 ± 0.046 | 3.05 ± 0.073 |
| EDHDVHSNESSNETIGE [IRR1] | 3 ± 0.079 | 3.2 ± 0.086 | 3.28 ± 0.058 | 3.06 ± 0.075 |
| PEDAQLLLAANTHLGAR [RPS0A] | 1.63 ± 0.058 | 1.39 ± 0.052 | 1.63 ± 0.12 | 1.9 ± 0.068 |
| LSKMENVNLDDYPDDSG [NAS6] | 2.75 ± 0.11 | 3.02 ± 0.11 | 2.83 ± 0.088 | 3.05 ± 0.091 |
| VPRLFDLVKPKNPKFSN [SMC4] | 2.54 ± 0.052 | 2.62 ± 0.061 | 2.45 ± 0.091 | 2.81 ± 0.052 |
| LSMRFQRETSGMIVISM [SRB8] | 2.13 ± 0.081 | 2.05 ± 0.062 | 1.54 ± 0.067 | 1.97 ± 0.058 |
| HHYNPKTKKLNLSAFKI [BRR2] | 2.21 ± 0.062 | 2.4 ± 0.05 | 2.4 ± 0.055 | 2.4 ± 0.042 |
| ERHQAGKNQWFFSKLRF [RPL27A] | 3.19 ± 0.091 | 3.24 ± 0.092 | 3.09 ± 0.075 | 3.18 ± 0.046 |
| FSWISVVNDLVGEKLVV [SIR3] | 3.42 ± 0.13 | 2.58 ± 0.14 | 3.26 ± 0.072 | 2.84 ± 0.14 |
| MVHLYSIVEECDARFDE [RPC17] | 3.04 ± 0.12 | 2.94 ± 0.078 | 3.01 ± 0.099 | 2.74 ± 0.18 |
| QWYTLQSQLNVTLSQLV [MED8] | 1.54 ± 0.034 | 2.15 ± 0.032 | 1.85 ± 0.075 | 1.67 ± 0.032 |
